Source: patent US20190000964A1 (CREATIVE BIO PEPTIDES, published 2019)

B1: MIP-1β (ligand)
chain: APMGSDPPTACCFSYTARKLPRNFVVDYYETSSLCSQPAVVFQTKRSKQVCADPSESWVQEYVYDLELN
notes: also called MIP-β

Tests used:
[1] = target: T1, human CCR5 receptor (hCCR5) (human, UniProt P51681 1-352); experiment: inhibition of gp120BaL/sCD4 binding to Cf2Th/synR5 cells (FIG. 4A)
T1 construct: whole, on cells; also called synCCR5; chemokine co-receptor CCR5

[2] = target: T1, human CCR5 receptor (hCCR5); experiment: inhibition of gp120CM235/sCD4 binding to Cf2Th/synR5 cells (FIG. 4B)
[3] = target: T1, human CCR5 receptor (hCCR5); experiment: inhibition of gp120CM235/sCD4 binding to GHOST CD4.CCR5 cells (FIG. 4C)
[4] = target: T1, human CCR5 receptor (hCCR5); experiment: inhibition of gp120/sCD4 complex binding to CCR5-expressing Cf2Th cells by competing peptide

T1 sequence (P51681 whole entry): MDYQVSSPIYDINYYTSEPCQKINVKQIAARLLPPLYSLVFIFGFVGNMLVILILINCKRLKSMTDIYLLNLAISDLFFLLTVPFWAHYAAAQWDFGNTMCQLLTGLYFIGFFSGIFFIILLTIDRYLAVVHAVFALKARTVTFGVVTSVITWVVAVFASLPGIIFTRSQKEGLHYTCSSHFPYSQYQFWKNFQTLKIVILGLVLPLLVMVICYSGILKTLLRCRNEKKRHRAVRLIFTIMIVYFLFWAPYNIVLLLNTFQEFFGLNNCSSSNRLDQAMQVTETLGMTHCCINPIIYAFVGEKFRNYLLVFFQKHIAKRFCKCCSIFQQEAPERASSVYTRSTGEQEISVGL

| Binder | IC50 [1] | IC50 [2] | IC50 [3] | EC50 [4] |
| --- | --- | --- | --- | --- |
| B1 | 1.5 nM | 1.8 nM | 0.43 nM |  |
| INNYT |  |  |  | 0.06 nM |
| IDNYT |  |  |  | 1 nM |
